# Source: patent US20200199213A1 (Eli Lilly, published 2020)
# Substitutions are numbered along the chain they refer to. Numbers in names are those of the source.
# T1: human ANGPTL3/8 complex (human, UniProt Q9Y5C1 17-460; Q6UXH0 22-198, limits assumed)
# T1 construct: also called hANGPTL3/8 complex; ANGTPL3/8 complex
# T1 sequence 1: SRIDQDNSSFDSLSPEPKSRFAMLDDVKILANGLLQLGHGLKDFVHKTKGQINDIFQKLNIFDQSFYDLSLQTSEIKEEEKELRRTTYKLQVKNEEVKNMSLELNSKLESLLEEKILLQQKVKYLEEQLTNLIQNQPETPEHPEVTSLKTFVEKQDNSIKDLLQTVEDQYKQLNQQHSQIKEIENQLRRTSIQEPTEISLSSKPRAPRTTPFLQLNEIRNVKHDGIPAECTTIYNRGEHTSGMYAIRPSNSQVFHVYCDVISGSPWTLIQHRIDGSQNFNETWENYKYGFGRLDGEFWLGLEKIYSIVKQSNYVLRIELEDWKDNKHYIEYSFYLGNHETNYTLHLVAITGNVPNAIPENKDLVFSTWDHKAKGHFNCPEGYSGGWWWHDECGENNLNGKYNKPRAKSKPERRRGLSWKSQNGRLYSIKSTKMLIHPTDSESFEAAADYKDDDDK
# T1 sequence 2: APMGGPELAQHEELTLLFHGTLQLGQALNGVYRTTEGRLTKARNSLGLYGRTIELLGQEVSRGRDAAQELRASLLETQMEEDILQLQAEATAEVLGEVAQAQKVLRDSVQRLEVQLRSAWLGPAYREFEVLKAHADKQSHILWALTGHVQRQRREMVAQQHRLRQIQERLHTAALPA
# T2: human ANGPTL8 (human, UniProt Q6UXH0 22-198)
# T2 construct: Biotinylated in the ELISA assays; also called hANGPTL8; free ANGPTL8
# T2 sequence: T1 sequence 2
# T3: human ANGPTL3 (human, UniProt Q9Y5C1 17-460)
# T3 construct: Biotinylated in the ELISA assays; also called hANGPTL3; free ANGPTL3
# T3 sequence: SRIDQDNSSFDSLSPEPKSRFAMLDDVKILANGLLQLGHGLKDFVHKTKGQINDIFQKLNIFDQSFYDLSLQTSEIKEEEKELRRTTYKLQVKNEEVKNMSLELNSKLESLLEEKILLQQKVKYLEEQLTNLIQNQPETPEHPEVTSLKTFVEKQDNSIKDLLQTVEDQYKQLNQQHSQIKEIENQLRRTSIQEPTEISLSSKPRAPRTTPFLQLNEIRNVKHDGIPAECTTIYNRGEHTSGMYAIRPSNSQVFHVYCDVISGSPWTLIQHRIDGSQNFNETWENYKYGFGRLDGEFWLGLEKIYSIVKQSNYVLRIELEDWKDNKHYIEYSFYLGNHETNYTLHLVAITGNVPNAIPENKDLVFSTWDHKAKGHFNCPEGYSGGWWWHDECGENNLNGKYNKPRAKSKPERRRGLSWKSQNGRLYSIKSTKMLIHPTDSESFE
# B1: anti-ANGPTL3/8 complex Ab having a LC of SEQ ID NO:5 and a HC of SEQ ID NO:6 (antibody, human IgG4 S228P, kappa, F234A L235A, V domains shown)
# VH: QVTLKESGPTLVKPTQTLTLTCTFSGFSLSISGVGVGWIRQPPGKALEWLALIYRNDDKRYSPSLKSRLTITKDTSKNQVVLTLTNMDPVDTATYYCARTYSSGWYGNWFDPWGQGTLVTVSS
# VL: DIVMTQTPLSLPVTPGEPASISCRSSQSLLDSDDGNTYLDWYLQKPGQSPQLLIYMLSYRASGVPDRFSGSGSGTDFTLKISRVEAEDVGIYYCMQRIEFPLTFGGGTKVEIKR
# notes: In the ELISA assays tested as IgG from CHO supernatants; also called the Ab
# B2: Ab with LC variant having a D31S mutation (SEQ ID NO:21) and a HC of SEQ ID NO:6 (antibody, human IgG4 S228P, kappa, F234A L235A, V domains shown)
# VH: B1 VH
# VL: B1 VL with D31S
# notes: also called D31S Variant Ab; D31S Ab
# B3: Ab with LC variant having a D33A mutation (SEQ ID NO:22) and a HC of SEQ ID NO:6 (antibody, human IgG4 S228P, kappa, F234A L235A, V domains shown)
# VH: B1 VH
# VL: B1 VL with D33A
# notes: also called D33A Variant Ab; D33A Ab
# B4: Ab with LC variant having a E99Q mutation (SEQ ID NO:25) and a HC of SEQ ID NO:6 (antibody, human IgG4 S228P, kappa, F234A L235A, V domains shown)
# VH: B1 VH
# VL: B1 VL with E99Q
# notes: also called E99Q Variant Ab; E99Q Ab
# Molecular target: T1, human ANGPTL3/8 complex
# Assay: ELISA; Ab captured by anti-human Fc; biotinylated antigen at 1.23 nM
# Protocol: (§1) ELISA Assay: Ab binding selectivity to either the ANGPTL3/8 complex, free ANGPTL3 or free ANGPTL8 is verified using standard ELISA assays. […] Ab from CHO supernatants after expression in CHO cells is then captured to the assay plate and results is an Ab concentration of 2 μg/ml. Biotinylated antigen (ANGPTL3, ANGPTL8 or ANGPTL3/8 complex) is added at varying concentrations by serial dilution to allow for Ab/antigen binding. Ab/antigen complexes are detected after the addition of alkaline phosphatase-conjugated neutravidin, and alkaline phosphatase substrate, and subsequent measurement of the optical density at 560 nm.
row,Binder,OD at 560 nm [OD 560 nm]
1,B1,0.51
2,B2,0.575
3,B3,0.491
4,B4,0.575

# Molecular target: T1, human ANGPTL3/8 complex
# Assay: ELISA; Ab captured by anti-human Fc; biotinylated antigen at 100 nM
# Protocol: as §1
row,Binder,OD at 560 nm [OD 560 nm]
1,B1,2.71
2,B2,2.47
3,B3,2.39
4,B4,2.47

# Molecular target: T2, human ANGPTL8
# Assay: as above
# Protocol: as §1
row,Binder,OD at 560 nm [OD 560 nm]
1,B1,0.072
2,B2,0.098
3,B3,0.078
4,B4,0.098

# Molecular target: T3, human ANGPTL3
# Assay: as above
# Protocol: as §1
row,Binder,OD at 560 nm [OD 560 nm]
1,B1,0.081
2,B2,0.084
3,B3,0.082
4,B4,0.084

# Molecular target: T1, human ANGPTL3/8 complex
# Assay: ELISA; Ab captured by anti-human Fc; biotinylated antigen at 33.3 nM
# Protocol: as §1
row,Binder,OD at 560 nm [OD 560 nm]
1,B1,2.41
2,B2,2.23
3,B3,2.18
4,B4,2.23

# Molecular target: T2, human ANGPTL8
# Assay: as above
# Protocol: as §1
row,Binder,OD at 560 nm [OD 560 nm]
1,B1,0.05
2,B2,0.063
3,B3,0.049
4,B4,0.063

# Molecular target: T3, human ANGPTL3
# Assay: as above
# Protocol: as §1
row,Binder,OD at 560 nm [OD 560 nm]
1,B1,0.052
2,B2,0.069
3,B3,0.067
4,B4,0.069

# Molecular target: T1, human ANGPTL3/8 complex
# Assay: ELISA; Ab captured by anti-human Fc; biotinylated antigen at 0.412 nM
# Protocol: as §1
row,Binder,OD at 560 nm [OD 560 nm]
1,B1,0.231
2,B2,0.234
3,B3,0.196
4,B4,0.234

# Molecular target: T2, human ANGPTL8
# Assay: as above
# Protocol: as §1
row,Binder,OD at 560 nm [OD 560 nm]
1,B1,0.046
2,B2,0.062
3,B3,0.047
4,B4,0.062

# Molecular target: T3, human ANGPTL3
# Assay: as above
# Protocol: as §1
row,Binder,OD at 560 nm [OD 560 nm]
1,B1,0.043
2,B2,0.058
3,B3,0.056
4,B4,0.058

# Molecular target: T1, human ANGPTL3/8 complex
# Assay: single point ELISA; IgG captured by anti-human Fc; biotinylated antigen at 25 nM
# Protocol: (§2) Single Point ELISA (SPE) Assay: Ab binding selectivity to either the ANGPTL3/8 complex, free ANGPTL3 or free ANGPTL8 is initially verified using standard ELISA assays in a single point format. […] IgG secreted into supernatants after expression in CHO cells are then captured to the assay plate. Biotinylated antigen is added at a concentration of 25 nM to allow for Ab/antigen binding. Ab/antigen complexes are detected after adding alkaline phosphatase-conjugated neutravidin and alkaline phosphatase substrate, and subsequent measurement of the optical density at 560 nm. Positive binding is determined by a signal greater than 3 fold over the non-binding background signal.
row,Binder,OD at 560 nm [OD 560 nm]
1,B1,2.3
2,B2,0.928
3,B3,0.898
4,B4,1.54

# Molecular target: T2, human ANGPTL8
# Assay: as above
# Protocol: as §2
row,Binder,OD at 560 nm [OD 560 nm]
1,B1,0.087
2,B2,0.072
3,B3,0.118
4,B4,0.1

# Molecular target: T3, human ANGPTL3
# Assay: as above
# Protocol: as §2
row,Binder,OD at 560 nm [OD 560 nm]
1,B1,0.074
2,B2,0.058
3,B3,0.076
4,B4,0.083
